# In paper PMC4495445:
# Experiment: DAPI staining after 24 h in sporulation medium
# Settings: glycan lost; control: gda1Δ strain with wild-type GDA1
row,Protein,other: sporulation efficiency
1,Gda1p: N41D (protein) parent chain: MAPIFRNYRFAIGAFAVIMLILLIKTSSIGPPSIARTVTPNASIPKTPEDISILPVNDEPGYLQDSKTEQNYPELADAVKSQTSQTCSEEHKYVIMIDAGSTGSRVHIYKFDVCTSPPTLLDEKFDMLEPGLSSFDTDSVGAANSLDPLLKVAMNYVPIKARSCTPVAVKATAGLRLLGDAKSSKILSAVRDHLEKDYPFPVVEGDGVSIMGGDEEGVFAWITTNYLLGNIGANGPKLPTAAVFDLGGGSTQIVFEPTFPINEKMVDGEHKFDLKFGDENYTLYQFSHLGYGLKEGRNKVNSVLVENALKDGKILKGDNTKTHQLSSPCLPPKVNATNEKVTLESKETYTIDFIGPDEPSGAQCRFLTDEILNKDAQCQSPPCSFNGVHQPSLVRTFKESNDIYIFSYFYDRTRPLGMPLSFTLNELNDLARIVCKGEETWNSVFSGIAGSLDELESDSHFCLDLSFQVSLLHTGYDIPLQRELRTGKKIANKEIGWCLGASLPLLKADNWKCKIQSA,no change
2,Gda1p: N280D (protein) parent chain: MAPIFRNYRFAIGAFAVIMLILLIKTSSIGPPSIARTVTPNASIPKTPEDISILPVNDEPGYLQDSKTEQNYPELADAVKSQTSQTCSEEHKYVIMIDAGSTGSRVHIYKFDVCTSPPTLLDEKFDMLEPGLSSFDTDSVGAANSLDPLLKVAMNYVPIKARSCTPVAVKATAGLRLLGDAKSSKILSAVRDHLEKDYPFPVVEGDGVSIMGGDEEGVFAWITTNYLLGNIGANGPKLPTAAVFDLGGGSTQIVFEPTFPINEKMVDGEHKFDLKFGDENYTLYQFSHLGYGLKEGRNKVNSVLVENALKDGKILKGDNTKTHQLSSPCLPPKVNATNEKVTLESKETYTIDFIGPDEPSGAQCRFLTDEILNKDAQCQSPPCSFNGVHQPSLVRTFKESNDIYIFSYFYDRTRPLGMPLSFTLNELNDLARIVCKGEETWNSVFSGIAGSLDELESDSHFCLDLSFQVSLLHTGYDIPLQRELRTGKKIANKEIGWCLGASLPLLKADNWKCKIQSA,no change
3,Gda1p: N335D (protein) parent chain: MAPIFRNYRFAIGAFAVIMLILLIKTSSIGPPSIARTVTPNASIPKTPEDISILPVNDEPGYLQDSKTEQNYPELADAVKSQTSQTCSEEHKYVIMIDAGSTGSRVHIYKFDVCTSPPTLLDEKFDMLEPGLSSFDTDSVGAANSLDPLLKVAMNYVPIKARSCTPVAVKATAGLRLLGDAKSSKILSAVRDHLEKDYPFPVVEGDGVSIMGGDEEGVFAWITTNYLLGNIGANGPKLPTAAVFDLGGGSTQIVFEPTFPINEKMVDGEHKFDLKFGDENYTLYQFSHLGYGLKEGRNKVNSVLVENALKDGKILKGDNTKTHQLSSPCLPPKVNATNEKVTLESKETYTIDFIGPDEPSGAQCRFLTDEILNKDAQCQSPPCSFNGVHQPSLVRTFKESNDIYIFSYFYDRTRPLGMPLSFTLNELNDLARIVCKGEETWNSVFSGIAGSLDELESDSHFCLDLSFQVSLLHTGYDIPLQRELRTGKKIANKEIGWCLGASLPLLKADNWKCKIQSA,no change
4,Gda1p: N41D/N280D/N335D (protein) parent chain: MAPIFRNYRFAIGAFAVIMLILLIKTSSIGPPSIARTVTPNASIPKTPEDISILPVNDEPGYLQDSKTEQNYPELADAVKSQTSQTCSEEHKYVIMIDAGSTGSRVHIYKFDVCTSPPTLLDEKFDMLEPGLSSFDTDSVGAANSLDPLLKVAMNYVPIKARSCTPVAVKATAGLRLLGDAKSSKILSAVRDHLEKDYPFPVVEGDGVSIMGGDEEGVFAWITTNYLLGNIGANGPKLPTAAVFDLGGGSTQIVFEPTFPINEKMVDGEHKFDLKFGDENYTLYQFSHLGYGLKEGRNKVNSVLVENALKDGKILKGDNTKTHQLSSPCLPPKVNATNEKVTLESKETYTIDFIGPDEPSGAQCRFLTDEILNKDAQCQSPPCSFNGVHQPSLVRTFKESNDIYIFSYFYDRTRPLGMPLSFTLNELNDLARIVCKGEETWNSVFSGIAGSLDELESDSHFCLDLSFQVSLLHTGYDIPLQRELRTGKKIANKEIGWCLGASLPLLKADNWKCKIQSA,no change
